Data reported in patent publication KR20220139244A (dated 2022).
Read-outs that look alike come from different tables or passages of the source.

B1: No. 139 antibody (Full IgG) (antibody, V domains shown)
VH: QITLKESGPTLVKPTQTLTLTCSFSGFSLSTSGVGVGWIRQPPGKALEWLALIDWDDNKYHTTSLKTRLTISKDTSKNQVVLTMTNMDPVDTATYYCARIPGFLRYRNRYYYYGMDVWGQGTTVTVSS
VL: ELVLTQPPSVSAAPGQKVTISCSGSSSNIGNNYVSWYQQLPGTAPKLLIYDNNKRPSGIPDRFSGSKSGTSATLGITGLQTGDEADYYCGTWDSSLSAGVFGGGTELTVL
B2: No. 32 antibody (Full IgG; Table 3/4 numbering) (antibody, V domains shown)
VH: EVQLVQSGGGLIQPGGSLRLSCAASEFIVSSNYMTWVRQAPGKGLEWVSIIYPGGSTYYADSVKGRFTISRDNSKNTLYLRMNSLRAEDTAVYYCARDLPLTGTTLDYWGQGTLVTVSS
VL: not shown

Key:
[1] = biological target: T1, SARS-CoV-2 spike 501Y.V2 (pseudovirus of Tables 8/23) (SARS-CoV-2); experiment: cell-based or functional assay
[2] = biological target: T1, SARS-CoV-2 spike 501Y.V2 (pseudovirus …); experiment: cell-based or functional assay; remark: listed apart in the source
[3] = biological target: SARS-CoV-2 spike 'D614 or G614' (pseudovirus of Table 23) (SARS-CoV-2, UniProt P0DTC2 14-1273); experiment: cell-based or functional assay
[4] = biological target: T2, SARS-CoV-2 RBD protein, wild type (recombinant) (SARS-CoV-2, UniProt P0DTC2 319-541); experiment: BLI
[5] = biological target: T2, SARS-CoV-2 RBD protein, wild type …; experiment: BLI (Octet), IgG culture supernatant

Binder	IC50 [1] [µg/mL]	IC50 [2] [µg/mL]	IC50 [3] [µg/mL]	Kd [4] [nM]	koff [4] [s⁻¹]	kon [4] [M⁻¹ s⁻¹]	Kd [5] [nM]
B1	0.33	0.33	0.00035				
B2		0.06	0.00325	0.132	0.000103	779000	0.147
